Test system: Suc-AEPF-pNA peptide substrate
Assay: Peptidyl-prolyl isomerase activity of PIN1 polypeptides without inhibitor
Format: biochemical
Details: 0.033 nM enzyme, 100 μM Suc-AEPF-pNA
Source text: PIN1 is a phosphorylation dependent peptidyl-prolyl isomerase. Peptidyl-prolyl ismomerase activity for the peptides of the invention can be measured using a spectrophotometric assay based on the coupled chymotrypsin catalyzed, cis-trans conformation dependent cleavage of a para-nitroanaline-containing peptide substrate. This rotamase assay is described by Kofron et al. (Biochemistry 30, […] (1991)) and its application to PIN1 isomerase activity is described by Yaffe et al. (Science 278, 1957-1960 (1997)). Cleavage of the isomerized peptide releases para-nitroanaline, which can be monitored by an increase in absorbance at 390 nm. The PIN1 peptide substrate, succinyl-alanine-[…]-proline-phenylalanine-paranitroaniline (Suc-AEPF-pNA) (Bachem California, Inc., Torrence, Calif.) is kept in a predominantly cis conformation with an anhydrous TFE (trifluorethanol)/LiCl (lithium chloride) solvent mixture. […]
Peptidyl-prolyl isomerase reactions were carried out in 25 mM MOPS [3-(N-Morpholino)propanesufonic acid], pH 7.5, 0.5 mM TCEP [Tris(2-carboxyethyl)phosphine hydrochloride], 2% DMSO, 5 μl of a 25 mg/ml solution of Subtilisin Carlsberg Protease (Sigma), […], and 100 μM Suc-AEPF-pNA peptide substrate. […] The absorbance at 390 nm was monitored continuously until all substrate had been converted to the cleaved product. […]

B1: mutant PIN1 PPIase (K77Q/K82Q): mutant PIN1 PPIase polypeptide (SEQ ID NO:4) devoid of the WW domain, with K77Q and K82Q substitutions (protein)
chain: GSHMGKNGQGEPARVRCSHLLVKHSQSRRPSSWRQEQITRTQEEALELINGYIQKIKSGEEDFESLASQFSDCSSAKARGDLGAFSRGQMQKPFEDASFALRTGEMSGPVFTDSGIHIILRTE
With B1 the rate was 0.2.
